In patent US20160263250A1 (GENERAL HOSPITAL, published 2016):

Columns and labels:
Exendin-4X12-VT750 = experiment: cell-labeling assay, fluorescence plate reader, MIN6 cells
Exendin-4K12-VT680 = experiment: in vivo injection into NOD MIP-GFP mice; intravital imaging and fluorescence histology
Exendin-4 = Exendin-4 (UniProt P26349 48-86); experiment: blocking on MIN6 cells: Exendin-4 (0-500 nM), then Exendin-4X12-VT750 (10 nM); competitor Exendin-4X12-VT750

Measured: binding result

B1: GLP-1R naturally expressed on mouse insulinoma-derived MIN6 cells and mouse pancreatic beta cells (receptor)
chain: GPRPQGTTVSLSETVQKWREYRRQCQRFLTEAPLLATGLFCNRTFDDYACWPDGPPGSFVNVSCPWYLPWASSVLQGHVYRFCTAEGLWLHKDNSSLPWRDLSECEESKRGERNFPEEQLLSLYIIYTVGYALSFSALVIASAILVGFRHLHCTRNYIHLNLFASFILRALSVFIKDAALKWMYSTAAQQHQWDGLLSYQDSLGCRLVFLLMQYCVAANYYWLLVEGVYLYTLLAFSVFSEQRIFKLYLSIGWGVPLLFVIPWGIVKYLYEDEGCWTRNSNMNYWLIIRLPILFAIGVNFLIFIRVICIVVSKLKANLMCKTDIKCRLAKSTLTLIPLLGTHEVIFAFVMDEHARGTLRFIKLFTELSFTSFQGLMVAILYCFVNNEVQMEFRKCWERWRLEHLNIQRDCSMKPLKCPTSSVSSGATVGSSVYAATCQSSYS
notes: whole, on cells; The species follows from the cell line and the animals; also called GLP-1R (MIN6); GLP-1 receptors in vivo (mouse)
binds: all assays above
